The source of these data is PMC9122904, “Insights into the client protein release mechanism of the ATP-independent chaperone Spy” (Nature Communications, 2022).

Common to all, as to test: BLI; Octet RED96; client biotinylated and loaded on streptavidin sensors; Spy or Spy variant in solution at 0.25, 0.5, 1, 1.5 and 2 μM; 40 mM HEPES, 150 mM NaCl, pH 7.5; Kd calculated as koff/kon
Common to all, as to details: both partners purified

One assay addresses T1, Spy_(27-127) (UniProt P77754 50-150).
T1 construct: Spy chaperone, residues 27-127; source: E. coli BL21 (DE3), purified (Ni-NTA, cation exchange, SEC); not shown: His6, N-terminal, cleaved; SUMO, N-terminal, cleaved
T1 sequence (looked up): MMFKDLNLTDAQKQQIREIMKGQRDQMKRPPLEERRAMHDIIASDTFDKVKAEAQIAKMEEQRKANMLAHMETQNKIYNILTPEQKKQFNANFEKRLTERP
The procedure, abridged: (§1)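 Biolayer interferometry used an Octet RED96: client proteins biotinylated with EZ-link NHS-biotin (1:1 molar ratio) were loaded on streptavidin sensors, dipped into 40 mM HEPES, 150 mM NaCl, pH 7.5 containing Spy protein at 0.25, 0.5, 1, 1.5 and 2 μM, then moved to Spy-free buffer. Wavelength-shift association and dissociation curves were fitted in SigmaPlot 12.0, giving observed association rate and koff. kon came from observed rate versus Spy concentration; Kd was koff/kon.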

The target in the next assay is T2, Spy_(27-124) (UniProt P77754 50-147).
T2 construct: source: E. coli BL21 (DE3), purified (Ni-NTA, cation exchange, SEC); not shown: His6, N-terminal, cleaved; SUMO, N-terminal, cleaved
T2 sequence (looked up): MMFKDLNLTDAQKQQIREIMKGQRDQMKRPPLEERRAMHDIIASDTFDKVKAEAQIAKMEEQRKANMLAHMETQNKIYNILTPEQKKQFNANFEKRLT
The procedure, abridged:
as §1

For another assay, the target named is T3, Spy_(29-138) (UniProt P77754 52-161).
T3 construct: source: E. coli BL21 (DE3), purified (Ni-NTA, cation exchange, SEC); not shown: His6, N-terminal, cleaved; SUMO, N-terminal, cleaved
T3 sequence (looked up): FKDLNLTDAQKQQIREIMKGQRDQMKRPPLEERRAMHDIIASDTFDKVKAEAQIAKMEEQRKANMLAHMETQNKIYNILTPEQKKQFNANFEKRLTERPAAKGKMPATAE
Put shortly:
as §1

A further assay deals with T4, Spy_(1-124) (UniProt P77754 24-147).
T4 construct: source: E. coli BL21 (DE3), purified (Ni-NTA, cation exchange, SEC); not shown: His6, N-terminal, cleaved; SUMO, N-terminal, cleaved
T4 sequence (looked up): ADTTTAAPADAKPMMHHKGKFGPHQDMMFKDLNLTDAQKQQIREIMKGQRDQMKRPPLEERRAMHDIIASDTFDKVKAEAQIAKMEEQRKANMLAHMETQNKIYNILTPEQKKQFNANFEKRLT
Put shortly:
as §1

Another assay addresses T5, Spy_(21-130) (UniProt P77754 44-153).
T5 construct: Spy chaperone, residues 21-130; source: E. coli BL21 (DE3), purified (Ni-NTA, cation exchange, SEC); not shown: His6, N-terminal, cleaved; SUMO, N-terminal, cleaved
T5 sequence (looked up): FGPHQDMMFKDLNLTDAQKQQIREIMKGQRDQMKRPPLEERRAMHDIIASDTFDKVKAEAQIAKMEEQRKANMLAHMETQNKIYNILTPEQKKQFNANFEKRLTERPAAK
The procedure, abridged: as §1

In another assay the target is T6, Spy_(21-124) (UniProt P77754 44-147).
T6 construct: source: E. coli BL21 (DE3), purified (Ni-NTA, cation exchange, SEC); not shown: His6, N-terminal, cleaved; SUMO, N-terminal, cleaved
T6 sequence (looked up): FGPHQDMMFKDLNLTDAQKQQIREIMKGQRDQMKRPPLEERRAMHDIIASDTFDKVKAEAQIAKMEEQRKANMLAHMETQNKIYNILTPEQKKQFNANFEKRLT
The procedure, abridged:
as §1

The target in another assay is T7, Spy_(24-127) (UniProt P77754 47-150).
T7 construct: Spy chaperone, residues 24-127; source: E. coli BL21 (DE3), purified (Ni-NTA, cation exchange, SEC); not shown: His6, N-terminal, cleaved; SUMO, N-terminal, cleaved
T7 sequence (looked up): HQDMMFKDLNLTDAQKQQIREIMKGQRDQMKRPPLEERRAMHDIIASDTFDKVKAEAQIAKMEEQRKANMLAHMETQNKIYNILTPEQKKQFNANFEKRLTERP
Put shortly:
as §1

The target of the next assay is T8, Spy_(27-130) (UniProt P77754 50-153).
T8 construct: Spy chaperone, residues 27-130; source: E. coli BL21 (DE3), purified (Ni-NTA, cation exchange, SEC); not shown: His6, N-terminal, cleaved; SUMO, N-terminal, cleaved
T8 sequence (looked up): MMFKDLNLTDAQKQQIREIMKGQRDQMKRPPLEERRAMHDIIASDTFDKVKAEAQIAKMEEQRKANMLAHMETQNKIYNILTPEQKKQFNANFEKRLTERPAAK
Put shortly: as §1

Usually koff stands for the first-order rate constant of dissociation.

B1: Im7 H40W L53A I54A (natural protein)
chain: MELKNSISDYTEAEFVQLLKEIEKENVAATDDVLDVLLEWFVKITEHPDGTDAAYYPSDNRDDSPEGIVKEIKEWRAANGKPGFKQG
modifications: biotin (EZ-link NHS-biotin, 1:1 molar ratio of biotin to protein)
notes: Im7 (colicin E7 immunity protein) with H40W L53A I54A; Spy was made with an N-terminal His6-SUMO tag that was cleaved; also called Im7AAW; partially folded client; source: purified by a similar procedure to Spy
As to B1, the koff is 0.0933 s⁻¹ with Spy_(27-127); 0.089 s⁻¹ with Spy_(27-124); 0.0893 s⁻¹ in the assay with Spy_(29-138); 0.188 s⁻¹ with Spy_(1-124); 0.461 s⁻¹ in the assay with Spy_(21-130); 0.487 s⁻¹ with Spy_(21-124). Moreover, the koff with Spy_(24-127) was 0.39 s⁻¹; with Spy_(27-130), 0.092 s⁻¹.
